According to patent publication US20100325744A1:
Substitutions are numbered along the chain they refer to. Numbers in names are those of the source.

Assays:
[1] = molecular target: 2F8-HG-T234A (human); test: self-association of HG half-molecules; non-covalent nano-electrospray mass spectrometry
[2] = molecular target: 2F8-HG-L236A (human); test: as above
[3] = molecular target: 2F8-HG-L236V (human); test: as above
[4] = molecular target: 2F8-HG-L236V (human); test: self-association; non-covalent nano-electrospray mass spectrometry at 0.01-10 µM
[5] = molecular target: 2F8-HG-F273A (human); test: self-association of HG half-molecules; non-covalent nano-electrospray mass spectrometry
[6] = molecular target: 2F8-HG-F273A (human); test: self-association; non-covalent nano-electrospray mass spectrometry at 0.01-10 µM
[7] = molecular target: 2F8-HG-F273L (human); test: self-association of HG half-molecules; non-covalent nano-electrospray mass spectrometry
[8] = molecular target: 2F8-HG-Y275A (human); test: as above
[9] = molecular target: 2F8-HG-Y275A (human); test: self-association; non-covalent nano-electrospray mass spectrometry at 0.01-10 µM

B1: 2F8-HG-T234A (antibody, part only; not given: 2F8 variable domains, not shown: a dimerising Fc or GST)
heavy, part: ASTKGPSVFPLAPCSRSTSESTAALGCLVKDYFPEPVTVSWNSGALTSGVHTFPAVLQSSGLYSLSSVVTVPSSSLGTKTYTCNVDHKPSNTKVDKRVAPEFLGGPSVFLFPPKPKDTLMISRTPEVTCVVVDVSQEDPEVQFNWYVDGVEVHNAKTKPREEQFNSTYRVVSVLTVLHQDWLNGKEYKCKVSNKGLPSSIEKTISKAKGQPREPQVYTLPPSQEEMTKNQVSLACLVKGFYPSDIAVEWESNGQPENNYKTTPPVLDSDGSFFLYSRLTVDKSRWQEGNVFSCSVMHEALHNHYTQKSLSLSLGK
**Q.** How did the percentage molecules present as monomers [1] turn out when B1 was run?
**A.** Its percentage molecules present as monomers is over 80%.

B2: 2F8-HG-L236A (antibody, part only; not given: 2F8 variable domains, not shown: a dimerising Fc or GST)
heavy, part: B1 heavy, part with A234T, L236A
**Q.** Which percentage molecules present as monomers [2] does the source give for B2 here?
**A.** The percentage molecules present as monomers was over 80%.

B3: 2F8-HG-L236V (antibody, part only; not given: 2F8 variable domains, not shown: a dimerising Fc or GST)
heavy, part: B1 heavy, part with A234T, L236V
**Q.** How did the percentage molecules present as monomers [3] turn out when B3 was run?
**A.** Its percentage molecules present as monomers is over 80%.

**Q.** And the percentage monomeric at low concentrations [4]?
**A.** Its percentage monomeric at low concentrations is 100%.

B4: 2F8-HG-F273A (antibody, part only; not given: 2F8 variable domains, not shown: a dimerising Fc or GST)
heavy, part: B1 heavy, part with A234T, F273A
**Q.** For B4, which percentage molecules present as monomers [5] is on record?
**A.** The percentage molecules present as monomers was over 80%.

**Q.** What about the percentage monomeric at low concentrations [6] of the same binder?
**A.** Its percentage monomeric at low concentrations is 100%.

B5: 2F8-HG-F273L (antibody, part only; not given: 2F8 variable domains, not shown: a dimerising Fc or GST)
heavy, part: B1 heavy, part with A234T, F273L
**Q.** For B5, which percentage molecules present as monomers [7] is on record?
**A.** Its percentage molecules present as monomers is over 80%.

B6: 2F8-HG-Y275A (antibody, part only; not given: 2F8 variable domains, not shown: a dimerising Fc or GST)
heavy, part: B1 heavy, part with A234T, Y275A
**Q.** For B6, which percentage molecules present as monomers [8] is on record?
**A.** Its percentage molecules present as monomers is over 80%.

**Q.** What about the percentage monomeric at low concentrations [9] of the same binder?
**A.** Its percentage monomeric at low concentrations is 100%.
